{
  "source": "paper PMC549393",
  "molecular_target": "T1, TBP (TATA-binding protein);Brf1;Bdp1 (yeast?;yeast?;yeast?, UniProt P13393;P29056;P46678 1-240;1-596;1-594, ||)",
  "T1 sequence 1": "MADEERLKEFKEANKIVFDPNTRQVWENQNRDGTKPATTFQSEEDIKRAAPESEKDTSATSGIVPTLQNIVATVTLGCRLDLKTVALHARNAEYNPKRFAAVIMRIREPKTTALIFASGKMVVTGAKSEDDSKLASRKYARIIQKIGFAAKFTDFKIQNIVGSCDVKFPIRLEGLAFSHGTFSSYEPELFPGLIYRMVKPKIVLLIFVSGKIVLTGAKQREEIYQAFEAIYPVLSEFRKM",
  "T1 sequence 2": "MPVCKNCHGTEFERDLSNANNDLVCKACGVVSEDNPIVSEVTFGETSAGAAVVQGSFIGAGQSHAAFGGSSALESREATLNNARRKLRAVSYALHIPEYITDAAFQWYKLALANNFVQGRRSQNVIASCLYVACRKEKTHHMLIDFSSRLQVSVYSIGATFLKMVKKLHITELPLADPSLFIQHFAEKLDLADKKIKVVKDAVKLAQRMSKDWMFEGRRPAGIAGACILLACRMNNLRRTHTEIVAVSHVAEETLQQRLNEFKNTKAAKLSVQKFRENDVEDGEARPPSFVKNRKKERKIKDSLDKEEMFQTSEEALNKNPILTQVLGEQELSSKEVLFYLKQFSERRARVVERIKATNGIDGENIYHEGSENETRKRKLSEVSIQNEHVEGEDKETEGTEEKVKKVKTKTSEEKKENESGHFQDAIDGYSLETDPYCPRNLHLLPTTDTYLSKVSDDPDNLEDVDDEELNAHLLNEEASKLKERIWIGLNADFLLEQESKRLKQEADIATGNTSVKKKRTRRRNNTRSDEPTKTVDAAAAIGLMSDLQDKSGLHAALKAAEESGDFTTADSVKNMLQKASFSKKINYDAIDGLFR",
  "T1 sequence 3": "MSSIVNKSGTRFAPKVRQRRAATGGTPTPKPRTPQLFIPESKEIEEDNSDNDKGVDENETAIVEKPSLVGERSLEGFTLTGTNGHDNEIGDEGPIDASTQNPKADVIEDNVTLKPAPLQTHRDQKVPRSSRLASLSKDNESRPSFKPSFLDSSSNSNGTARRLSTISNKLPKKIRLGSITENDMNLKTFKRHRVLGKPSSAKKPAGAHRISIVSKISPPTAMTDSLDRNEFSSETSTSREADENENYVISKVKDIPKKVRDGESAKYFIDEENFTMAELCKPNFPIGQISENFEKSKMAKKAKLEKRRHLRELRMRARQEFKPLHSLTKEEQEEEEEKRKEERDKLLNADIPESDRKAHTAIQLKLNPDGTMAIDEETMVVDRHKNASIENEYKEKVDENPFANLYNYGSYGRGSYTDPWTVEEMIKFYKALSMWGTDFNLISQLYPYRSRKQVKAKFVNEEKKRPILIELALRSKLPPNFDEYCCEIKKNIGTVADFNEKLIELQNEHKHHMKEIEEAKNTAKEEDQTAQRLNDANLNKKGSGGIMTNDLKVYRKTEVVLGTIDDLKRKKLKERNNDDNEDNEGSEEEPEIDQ",
  "experiment": "EMSA",
  "data": [
    {"binder": "U6 (SNR6) TATA-DNA, 30 bp (dsDNA) DNA 1: TTTTCGGCTACTATAAATAAATGTTTTTTT DNA 2: AAAAAAACATTTATTTATAGTAGCCGAAAA", "values": [
      {"measurement": "binding result", "result": "binds"}
    ]}
  ]
}
